Measurements published in US20100260668A1 (published 2010).
Values joined by “and” are separate entries in the source; they are usually repeats but may differ in a detail not shown here. Equal entries are not always repeated. Each block holds one binder with its values, some of them ahead of it.

Columns and labels:
[1] = target: T1, RON (MSP Receptor ECD-His tag) (UniProt Q04912 25-957, limits assumed); assay: Direct Bind ELISA, antigen on plate; N-terminal VD
T1 construct: extracellular domain; Bought reagent

[2] = target: T2, HGF (HGF-His tag) (UniProt P14210 32-728); assay: Direct Bind ELISA, antigen on plate; N-terminal VD
T2 construct: Bought reagent

[3] = target: T3, HGF-His tag (UniProt P14210 32-728); assay: direct bind ELISA (ref Ab)
T3 construct: Bought antigen coated on the ELISA plate; not shown: His tag

[4] = target: hIGF1 (human, UniProt P05019 49-118); assay: cell-based or functional assay
[5] = target: IGF2 (UniProt P01344 25-91); assay: cell-based or functional assay
[6] = target: biotinylated ErbB3 (UniProt P21860 20-643, limits assumed, biotinylated); assay: capture ELISA, antibody captured by anti-human IgG Fc, biotinylated ErbB3
Method: The plates were washed with PBS containing 0.05% Tween 20 three times and blocked with 200 μl/well of 1% BSA/PBS for 1 hour at room temperature. Fifty μl of 5 nM DVD-Ig or antibody were added to each well and incubated for 1 hour at room temperature. […] The wells were washed three times, and 100 μl of ULTRA-TMB ELISA (Pierce, Rockford, Ill.) were added per well.

[7] = target: T4, PlGF (UniProt P49763-2 21-149, limits assumed); assay: direct bind ELISA, reference antibody
T4 construct: bought antigen coated on the ELISA plate; also called Placental GF
T4 sequence (looked up): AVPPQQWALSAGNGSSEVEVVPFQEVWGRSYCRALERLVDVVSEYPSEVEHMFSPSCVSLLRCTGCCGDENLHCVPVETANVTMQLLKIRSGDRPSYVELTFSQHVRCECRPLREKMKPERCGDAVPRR

[8] = target: T2, HGF (HGF-His tag); assay: Direct Bind ELISA, antigen on plate; C-terminal VD

T3 sequence (P14210 32-728 limits assumed): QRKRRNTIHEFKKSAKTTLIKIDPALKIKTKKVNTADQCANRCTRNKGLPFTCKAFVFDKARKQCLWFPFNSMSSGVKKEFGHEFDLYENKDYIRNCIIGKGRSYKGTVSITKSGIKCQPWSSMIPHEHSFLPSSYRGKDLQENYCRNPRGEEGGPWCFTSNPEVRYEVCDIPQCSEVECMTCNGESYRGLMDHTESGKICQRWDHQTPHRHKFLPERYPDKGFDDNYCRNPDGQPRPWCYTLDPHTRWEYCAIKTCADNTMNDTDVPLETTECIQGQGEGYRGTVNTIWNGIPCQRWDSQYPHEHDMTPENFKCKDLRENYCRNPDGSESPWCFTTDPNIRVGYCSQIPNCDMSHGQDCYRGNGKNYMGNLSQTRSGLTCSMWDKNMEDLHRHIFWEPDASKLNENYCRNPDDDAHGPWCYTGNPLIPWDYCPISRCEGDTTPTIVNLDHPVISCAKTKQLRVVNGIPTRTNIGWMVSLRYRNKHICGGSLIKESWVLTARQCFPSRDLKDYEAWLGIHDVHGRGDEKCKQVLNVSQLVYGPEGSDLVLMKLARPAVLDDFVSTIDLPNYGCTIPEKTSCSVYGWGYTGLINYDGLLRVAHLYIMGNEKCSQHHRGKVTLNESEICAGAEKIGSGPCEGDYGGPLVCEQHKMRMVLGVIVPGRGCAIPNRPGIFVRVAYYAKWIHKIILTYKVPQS
T2 sequence (P14210 32-728 limits assumed): as above

EC50 [1]: 460 pM
B1: DVD048 (RON (seq. 1) and VEGF (seq. 1) DVD-Ig) (bispecific antibody, IgG1)
VH: EVQLVQSGGGLVKPGGSLRLSCAASGFTFSSYAMHWVRQAPGKGLEWVAVISYDGSNKYYADSVKGRFTISRDNSKNTLYLQMNSLRAEDTAVYYCARFSGWPNNYYYYGMDVWGQGTTVTVSSASTKGPEVQLVESGGGLVQPGGSLRLSCAASGYTFTNYGMNWVRQAPGKGLEWVGWINTYTGEPTYAADFKRRFTFSLDTSKSTAYLQMNSLRAEDTAVYYCAKYPHYYGSSHWYFDVWGQGTLVTVSS
VL: DVVMTQSPLSLPVTPGEPASISCRSSQSLLHSNGFNYVDWYLQKPGQSPHLLIYFGSYRASGVPDRFSGSGSGTDFTLKISRVEAEDVGVYYCMQALQTPPWTFGQGTKVEIRRTVAAPDIQMTQSPSSLSASVGDRVTITCSASQDISNYLNWYQQKPGKAPKVLIYFTSSLHSGVPSRFSGSGSGTDFTLTISSLQPEDFATYYCQQYSTVPWTFGQGTKVEIKR
notes: HC vector V1 (wild-type hIgG1 constant), LC vector V2 (kappa constant); also called DVD048H; DVD048L

EC50 [2]: 500 pM
B2: DVD046 (HGF (seq. 1) and VEGF (seq. 1) DVD-Ig) (bispecific antibody, IgG1)
VH: QVQLVESGGGLVKPGGSLRLSCAASGFTFSDYYMSWIRQAPGKGLEWVSYISSSGSTIYYADSVKGRFTISRDNAKNSLYLQMNSLRAEDTAVYYCARDEYNSGWYVLFDYWGQGTLVTVSSASTKGPEVQLVESGGGLVQPGGSLRLSCAASGYTFTNYGMNWVRQAPGKGLEWVGWINTYTGEPTYAADFKRRFTFSLDTSKSTAYLQMNSLRAEDTAVYYCAKYPHYYGSSHWYFDVWGQGTLVTVSS
VL: DIQMTQSPSSVSASVGDRVTITCRASQGISSWLAWYQQKPGKAPNLLIYEASSLQSGVPSRFGGSGSGTDFTLTISSLQPEDFATYYCQQANGFPWTFGQGTKVEIKRTVAAPDIQMTQSPSSLSASVGDRVTITCSASQDISNYLNWYQQKPGKAPKVLIYFTSSLHSGVPSRFSGSGSGTDFTLTISSLQPEDFATYYCQQYSTVPWTFGQGTKVEIKR
notes: HC vector V1 (wild-type hIgG1 constant), LC vector V2 (kappa constant); also called DVD046L

EC50 [3]: 480 pM and 390 pM and 400 pM and 410 pM
B3: AB079 (antibody, human IgG1, kappa, V domains shown)
VH: EVQLVQSGAEVKKPGESLKISCKGSGYSFTTYWMHWVRQMPGKGLEWMGEINPTNGHTNYNPSFQGQVTISADKSISTAYLQWSSLKASDTAMYYCARNYVGSIFDYWGQGTLVTVSS
VL: DIQMTQSPSSLSASVGDRVTITCKASENVVSYVSWYQQKPGKAPKLLIYGASNRNTGVPSRFSGSGSGTDFTLTISSLQPEDFATYYCGQSYNYPYTFGQGTKLEIKR
notes: Vectors V1/V2

C-terminal VD pIGF1R Cellular Assay (hIGF1 Neutralization IC50 nM) [4]: 16.8 nM | C-terminal VD pIGFR1 Cellular Assay (IGF2 induced IC50 nM) [5]: 1.5 nM
B4: DVD041 (bispecific antibody, human IgG1, lambda)
heavy: not shown
light: DIQMTQSPSSLSASVGDRVTITCSASQDISNYLNWYQQKPGKAPKVLIYFTSSLHSGVPSRFSGSGSGTDFTLTISSLQPEDFATYYCQQYSTVPWTFGQGTKVEIKRTVAAPQSVLTQPPSVSAAPGQKVTISCSGSSSNIENNHVSWYQQLPGTAPKLLIYDNNKRPSGIPDRFSGSKSGTSATLGITGLQTGDEADYYCETWDTSLSAGRVFGGGTKLTVLGQPKAAPSVTLFPPSSEELQANKATLVCLISDFYPGAVTVAWKADSSPVKAGVETTTPSKQSNNKYAASSYLSLTPEQWKSHRSYSCQVTHEGSTVEKTVAPTECS

EC50 [6]: 670 pM
B5: AB063 (antibody, human IgG1, kappa, V domains shown)
VH: EVQLVESGGGLVQPGGSLRLSCAASGFTFSIYSMNWVRQAPGKGLEWVSYISSSSSTIYYADSVKGRFTISRDNAKNSLYLQMNSLRDEDTAVYYCARDRGDFDAFDIWGQGTMVTVSS
VL: DIQMTQSPSSLSASVGDRVTITCQASQDITNYLNWYQQKPGKAPKLLIYDASNLETGVPSRFSGSGSGTDFTFTISSLQPEDIATYNCQQCENFPITFGQGTRLEIKR

EC50 [6]: 260 pM
B6: AB062 (antibody, human IgG1, kappa, V domains shown)
VH: QVQLQQWGAGLLKPSETLSLTCAVYGGSFSGYYWSWIRQPPGKGLEWIGEINHSGSTNYNPSLKSRVTISVETSKNQFSLKLSSVTAADTAVYYCARDKWTWYFDLWGRGTLVTVSS
VL: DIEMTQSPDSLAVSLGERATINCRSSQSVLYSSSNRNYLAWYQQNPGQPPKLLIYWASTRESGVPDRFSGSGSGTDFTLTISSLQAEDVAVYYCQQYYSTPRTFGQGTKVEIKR

EC50 [7]: 130 pM and 140 pM and 170 pM
B7: AB047 (antibody, human IgG1, kappa, V domains shown)
VH: QVQLQQSGAELVKPGASVKISCKASGYTFTDYYINWVKLAPGQGLEWIGWIYPGSGNTKYNEKFKGKATLTIDTSSSTAYMQLSSLTSEDTAVYFCVRDSPFFDYWGQGTLLTVSS
VL: DIVLTQSPDSLAVSLGERVTMNCKSSQSLLNSGMRKSFLAWYQQKPGQSPKLLIYWASTRESGVPDRFTGSGSGTDFTLTISSVQAEDVAVYYCKQSYHLFTFGSGTKLEIKR

EC50 [8]: 185000 pM
B8: DVD045 (VEGF (seq. 1) and HGF (seq. 1) DVD-Ig) (bispecific antibody, IgG1)
VH: EVQLVESGGGLVQPGGSLRLSCAASGYTFTNYGMNWVRQAPGKGLEWVGWINTYTGEPTYAADFKRRFTFSLDTSKSTAYLQMNSLRAEDTAVYYCAKYPHYYGSSHWYFDVWGQGTLVTVSSASTKGPQVQLVESGGGLVKPGGSLRLSCAASGFTFSDYYMSWIRQAPGKGLEWVSYISSSGSTIYYADSVKGRFTISRDNAKNSLYLQMNSLRAEDTAVYYCARDEYNSGWYVLFDYWGQGTLVTVSS
VL: DIQMTQSPSSLSASVGDRVTITCSASQDISNYLNWYQQKPGKAPKVLIYFTSSLHSGVPSRFSGSGSGTDFTLTISSLQPEDFATYYCQQYSTVPWTFGQGTKVEIKRTVAAPDIQMTQSPSSVSASVGDRVTITCRASQGISSWLAWYQQKPGKAPNLLIYEASSLQSGVPSRFGGSGSGTDFTLTISSLQPEDFATYYCQQANGFPWTFGQGTKVEIKR
notes: HC vector V1 (wild-type hIgG1 constant), LC vector V2 (kappa constant); also called DVD045H; DVD045L

EC50 [3]: 150 pM and 170 pM and 160 pM
B9: AB012 (antibody, human IgG1, kappa, V domains shown)
VH: QVQLVESGGGLVKPGGSLRLSCAASGFTFSDYYMSWIRQAPGKGLEWVSYISSSGSTIYYADSVKGRFTISRDNAKNSLYLQMNSLRAEDTAVYYCARDEYNSGWYVLFDYWGQGTLVTVSS
VL: DIQMTQSPSSVSASVGDRVTITCRASQGISSWLAWYQQKPGKAPNLLIYEASSLQSGVPSRFGGSGSGTDFTLTISSLQPEDFATYYCQQANGFPWTFGQGTKVEIKR
notes: Vectors V1/V2

EC50 [7]: 490 pM
B10: AB074 (antibody, human IgG1, kappa, V domains shown)
VH: QVQLKQSGPGLVQPSQSLSITCTVSGFSLTTYGIHWVRQSPGKGLEWLGVMWSGGDTDYDAAFISRLSISKDNSKSQVFFKMNSLQANDTGIYYCARYRFYGMDYWGQGTSVTVSS
VL: AIQMTQSSSSFSVSLGDRVTITCKASEDIYNRFAWYQQKPGNAPRLLISGAASLEAGVPSRFSGSGSGQDYTLSITSLQTEDVATYYCQQYWSTPWTFGGGTKLEIKR

EC50 [8]: 12000 pM | EC50 [1]: 220 pM
B11: DVD033 (RON (seq. 1) and HGF (seq. 1) DVD-Ig) (bispecific antibody, IgG1)
VH: EVQLVQSGGGLVKPGGSLRLSCAASGFTFSSYAMHWVRQAPGKGLEWVAVISYDGSNKYYADSVKGRFTISRDNSKNTLYLQMNSLRAEDTAVYYCARFSGWPNNYYYYGMDVWGQGTTVTVSSASTKGPQVQLVESGGGLVKPGGSLRLSCAASGFTFSDYYMSWIRQAPGKGLEWVSYISSSGSTIYYADSVKGRFTISRDNAKNSLYLQMNSLRAEDTAVYYCARDEYNSGWYVLFDYWGQGTLVTVSS
VL: DVVMTQSPLSLPVTPGEPASISCRSSQSLLHSNGFNYVDWYLQKPGQSPHLLIYFGSYRASGVPDRFSGSGSGTDFTLKISRVEAEDVGVYYCMQALQTPPWTFGQGTKVEIRRTVAAPDIQMTQSPSSVSASVGDRVTITCRASQGISSWLAWYQQKPGKAPNLLIYEASSLQSGVPSRFGGSGSGTDFTLTISSLQPEDFATYYCQQANGFPWTFGQGTKVEIKR
notes: Outer AB005, inner AB012; HC vector V1 (wild-type hIgG1 constant), LC vector V2 (kappa constant); also called DVD033H; DVD033L
